Source: US20130273035

Target: Aβ1-42 (UniProt P05067)
Sequence (P05067 whole entry, looked up, tested part not stated): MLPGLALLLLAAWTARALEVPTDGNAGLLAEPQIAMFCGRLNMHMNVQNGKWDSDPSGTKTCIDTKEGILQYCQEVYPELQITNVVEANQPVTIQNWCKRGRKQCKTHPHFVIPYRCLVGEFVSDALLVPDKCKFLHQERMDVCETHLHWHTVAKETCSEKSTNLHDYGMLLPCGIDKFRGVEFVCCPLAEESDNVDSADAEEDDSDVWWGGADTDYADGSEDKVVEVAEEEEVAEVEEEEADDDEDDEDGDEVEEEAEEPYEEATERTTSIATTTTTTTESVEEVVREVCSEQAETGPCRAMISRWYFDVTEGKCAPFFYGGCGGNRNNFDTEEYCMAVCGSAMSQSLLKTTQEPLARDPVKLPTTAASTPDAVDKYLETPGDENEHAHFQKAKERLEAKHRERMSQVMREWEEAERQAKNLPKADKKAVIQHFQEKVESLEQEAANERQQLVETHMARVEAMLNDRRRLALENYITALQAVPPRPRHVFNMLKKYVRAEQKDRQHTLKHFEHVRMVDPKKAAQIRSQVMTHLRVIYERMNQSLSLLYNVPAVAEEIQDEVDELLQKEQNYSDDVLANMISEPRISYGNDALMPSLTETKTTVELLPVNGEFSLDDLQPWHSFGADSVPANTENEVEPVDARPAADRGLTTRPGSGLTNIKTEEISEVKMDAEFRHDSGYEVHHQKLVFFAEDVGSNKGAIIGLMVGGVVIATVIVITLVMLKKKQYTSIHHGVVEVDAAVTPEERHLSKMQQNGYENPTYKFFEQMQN

Substance: Cathepsin L
- proteolytic products analyzed with SELDI-TOF mass spectrometry: Incubating Aβ1-42 with CatL resulted in the dose-dependent generation of Aβ6-42 through proteolytic cleavage
